These results are taken from publication PMC9808734 (Nature Communications, 2023).

Sequences and labels used below:
B1: HLAA3_4 (VHH)
VHH: EVQLVESGGGLVQPGGSLRLSCAASGFNIYSYAMHWVRQAPGKGLEWVASFVPGSYATYYADSVKGRFTISADTSKNTAYLQMNSLRAEDTAVYYCSRGYYASYYFDVWGQGTLVTVSS
B2: HLAA3_8 (VHH)
VHH: EVQLVESGGGLVQPGGSLRLSCAASGFNIYSYYIHWVRQAPGKGLEWVAKIYPDSGYTYYADSVKGRFTISADTSKNTAYLQMNSLRAEDTAVYYCSRSFSRYGYMDYWGQGTLVTVSS
B3: HLAA3_1 (VHH)
VHH: EVQLVESGGGLVQPGGSLRLSCAASGFNVQGDGMHWVRQAPGKGLEWVAMVGPYSSYTYYADSVKGRFTISADTSKNTAYLQMNSLRAEDTAVYYCSRYSDGAFDYWGQGTLVTVSS
B4: HLAA3_2 (VHH)
VHH: EVQLVESGGGLVQPGGSLRLSCAASGFNITKYSIHWVRQAPGKGLEWVAMVGPYSSYTYYADSVKGRFTISADTSKNTAYLQMNSLRAEDTAVYYCSRFYSSYAFDVWGQGTLVTVSS
B5: HLAA3_3 (VHH)
VHH: EVQLVESGGGLVQPGGSLRLSCAASGFNIYSYAMHWVRQAPGKGLEWVASVAPGSGYTYYADSVKGRFTISADTSKNTAYLQMNSLRAEDTAVYYCSRNKYYTAYYMDYWGQGTLVTVSS
B6: HLAA3_10 (VHH)
VHH: EVQLVESGGGLVQPGGSLRLSCAASGFNVYYSGMHWVRQAPGKGLEWVAKISPDSGSTYYADSVKGRFTISADTSKNTAYLQMNSLRAEDTAVYYCSRDMYSVRSAMDYWGQGTLVTVSS
B7: HLAA3_11 (VHH)
VHH: EVQLVESGGGLVQPGGSLRLSCAASGFNIYSYGIHWVRQAPGKGLEWVAKVSPSSGYTYYADSVKGRFTISADTSKNTAYLQMNSLRAEDTAVYYCSRQYGYPYYFDYWGQGTLVTVSS
B8: HLAA3_9 (VHH)
VHH: EVQLVESGGGLVQPGGSLRLSCAASGFNISTWLIHWVRQAPGKGLEWVAVVYPDSSYTYYADSVKGRFTISADTSKNTAYLQMNSLRAEDTAVYYCSRSWFSKSAMDYWGQGTLVTVSS
B9: HLAA3_5 (VHH)
VHH: EVQLVESGGGLVQPGGSLRLSCAASGFNLSYYWMHWVRQAPGKGLEWVASIYPDGSYTWYADSVKGRFTISADTSKNTAYLQMNSLRAEDTAVYYCSRGTYFAMDYWGQGTLVTVSS
B10: HLAA3_7 (VHH)
VHH: EVQLVESGGGLVQPGGSLRLSCAASGFNVYYYWMHWVRQAPGKGLEWVASIYPDSDNTYYADSVKGRFTISADTSKNTAYLQMNSLRAEDTAVYYCSRGDYYYSYLDYWGQGTLVTVSS
B11: HLAA3_6 (VHH)
VHH: EVQLVESGGGLVQPGGSLRLSCAASGFNIFGYYMHWVRQAPGKGLEWVAVVSPGSGYTNYADSVKGRFTISADTSKNTAYLQMNSLRAEDTAVYYCSRALYSAYFAYWGQGTLVTVSS

For the assay, the target named is HLA-A3 on CFPAC parental cells (Homo sapiens, HLA-A3 serotype, allele …, strain).
B1: the binding result is reported as “binds”.
Turning to B2, the binding result is reported as “binds”.
Turning to B3, the binding result is reported as “binds”.
Turning to B4, the binding result is on record as “binds”.
Consider B5, for which the binding result is “binds”.
Take B6: the binding result is reported as “binds”.
Turning to B7, the binding result is on record as “binds”.
In the case of B8, the binding result is on record as “binds”.
The result for B9 reads “binds”; that for B10, “binds”.
Take B11: the binding result is “binds”.
